# Assay results: patent US4397951A, “Elastase-containing composition permitting elastase to be absorbed in increased amount” (Eisai Co., Ltd., priority 1981, dated 1983)
# Read-outs that look alike come from different tables or passages of the source.
# What was measured:
# [1] = Serum elastase level, Tmax, Cmax, AUC after intraduodenal aqueous solution (Effect Example 3); assay type: in vivo, beagles; settings: intraduodenal 5 ml solution, 55.2 mg elastase (326 EL. U/mg)
# Method: An aqueous control solution was prepared by adding 55.2 mg of elastase (326 EL. U/mg) alone to 5 ml of water.
# Four beagles (weighing 10.5-14.0 kg) were divided into 2 aliquot groups, each being 2 subjects. […] The subjects were fasted overnight, and the abdomen was cut open along the median line under anesthesia in the following morning. Then, 5 ml of the respective sample and control solutions were introduced into duodendum using injection tube, followed by immediate suturing. 3 ml of the blood were respectively taken prior to the administration of the solutions, and at the elapsed times of 1, 2, 4, 6, 8, 10, 12 and 24 hours after the administration of the solutions. About 1 ml of serum was respectively separated by means of centrifuge.
# Serum elastase levels were measured in accordance with "Enzyme-immunological method", as described in the effect example 1.
# [2] = intraintestinal, rats, cited from earlier work
# [3] = background statement; cited from earlier work
# [4] = test system: elastin; experiment: Elastase activity (decomposition of insoluble elastin); assay type: biochemical; settings: pH 8.8, 37°C, 30 min, elastin substrate
# Method: In the present invention, the compounding ratio of pure elastase to sucrose fatty acid ester is specified in terms of weight ratio for convenience' sake. […] That is, at present available pure elastase has an activity of 340 elastase activity units (abbreviated as 340 EL. U) per mg measured by the method to be described hereinafter, and therefore the composition of the present invention is also defined as an elastase-containing composition containing 0.5 to 50 mg of sucrose fatty acid ester per 340 EL. U of elastase. More specifically, the composition of the present invention is an elastase-containing composition which contains 0.5 to 50 mg of sucrose fatty acid ester per 340 EL. U (measured by the measuring method described hereinafter) of elastase.
# An elastase-containing sample is accurately weighed, and dissolved in a diluted Palitzsch buffer solution to make a 250 ml elastase enzyme solution. 1 ml of the elastase enzyme solution is added to 4 ml of a substrate solution, and incubation is conducted for 30 minutes at 37°±0.1° C. with shaking at 100 strokes/min. […]
# The amount of soluble elastin produced per minute as a result of decomposition of insoluble elastin under the above-described measuring conditions is determined as an amount of tyrosine (μg) by which EL. […]
# [5] = statement; cited from earlier work
substance,measurement,setting,value
Control Solution: 55.2 mg of elastase (326 EL. U/mg) alone in 5 ml of water,AUC0-24hr,[1],125.84 ng·h/mL
same,AUC0-24hr,[1]; 1440 min,307.18 ng·h/mL
^131 I-elastase: 131I-labelled elastase dissolved in a physiological saline solution,amount absorbed (blood vessel route plus lymphatic vessel route),[2]; 1 mg in physiological saline,0.15%
same,amount absorbed (blood vessel route plus lymphatic vessel route),[2]; 5 mg in physiological saline,0.05%
"elastase: decomposing enzyme for elastin, extracted from porcine pancreas; polypeptide having a molecular weight of 25,900",effect on elasticity of blood vessel,[3],increase elasticity of blood vessel
same,effect on serum lipid level,[3],normalize serum lipid level
same,elastase activity,[4],340 EL. U per mg
same,stability to gastric acid,[5],unstable to gastric acid
